Laboratory results taken from US20240409617A1 (published 2024).
Where two headings read alike, the source gives them in different places.

B1: Ab 25 (Fc fusion)
VH: QVQLVQSGGGLVQPGGSLRLSCAASGFTFSSYWMSWVRQAPGKGLEWVANIKQDGSEKYYVDSVKGRFTISRDNAKNSLYLQMNSLRAEDTAVYYCARGFYYYGAFDIWGQGTTVTVSS
VL: NFMLTQPHSVSESPGKTVTISCTGSSGSIASNYVQWYQQRPGSAPTTVIYEDNQRPSGVPDRFSGSIGSSSNSASLTISGLKTEDEADYYCQSYDSSNHWVFGGGTKLTVL
B2: Ab 2-7 (Fc fusion)
chain 1: QVTLKESGPTRVKPTQTLTLTCTFSGFSLSTTGVGVGWIRQPPGKALEWLALIYWNDDKRYSPSLKSRLTITKDTSKNQVVLTMTNMDPVDTATYYCARISGSGYFYPFDIWGQGTTVTVSS
chain 2: NFMLTQPHSVSESPGKTVTISCTRSSGSIASNYVQWYQQRPGSSPTTVIYEDNQRPSGVPDRFSGSIDSSSNSASLTISGLKAEDEADYYCQSYDSSSLWVFGGGTKLTVL
B3: Ab set2-7 (Fc fusion)
chain 1: QVTLKESGPTRVKPTQTLTLTCTFSGFSLSTTGVGVGWIRQPPGKALEWLALIYWNDDKRYSPSLKSRLTITKDTSKNQVVLTMTNMDPVDTATYYCARISGSGYFYPFDIWGQGTTVTVSS
chain 2: NFMLTQPHSVSESPGKTVTISCTRSSGSIASNYVQWYQQRPGSSPTTVIYEDNQRPSGVPDRFSGSIDSSSNSASLTISGLKAEDEADYYCQSYDSSSLWVFGGGTKLTVL
B4: Ab 5 (Fc fusion)
VH: QVQLVQSGGGVVQPGRSLRLSCAASGFTFTTYGMHWVRQAPGKGLEWVAVISYDGSIKNYADFVEGRFTISRDNSKNTLYLQMNSLRPEDTGVYYCARVGDSSSYYGIDAWGQGTLVTVSS
VL: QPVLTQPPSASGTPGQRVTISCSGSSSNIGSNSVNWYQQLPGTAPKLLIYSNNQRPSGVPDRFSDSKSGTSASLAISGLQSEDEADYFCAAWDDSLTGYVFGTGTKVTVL
B5: Ab 30 (Fc fusion)
VH: QVQLVQSGGGVVQPGKSLRLSCTASGFTFSDFPIHWVRQAPGKGLEWVGVISYDGNIKYYGDSVKGRFTISRDNAKNSLYLQMNSLRVEDTAVYYCARGGSSFDIWGQGTTVTVSS
VL: SYELTQPPSVSEAPRQRVTISCSGSTSNIGNNAVSWYQHLPGKAPKLLIYYNERLPSGVSDRFSGSKSGTSASLAISGLRSEDEADYYCAAWDDSLSGHVVFGGGTKLTVL
B6: Ab 23 (Fc fusion)
VH: EVQLVQSGAEVKKPGSSVKVSCRSSGGTFSTYGITWVRQAPGQGLEWMGRIIPSLGIPNYAQKFQGRVTITADTSVSTAWMELSSLESDDTAIYYCARENIDLATNDFWGQGTLVTVSS
VL: QSALTQPPSASGSPGQSVTISCTGTSRDIGAYGYVSWYQQVPGKAPKLIIYEVRNRPSGVSSRFSGSKSGNTASLTISGLQAEDEADYYCSSYTSSSTLDVVFGGGTKLTVL
B7: Ab 27 (Fc fusion)
VH: QVQLVQSGTEVKKPGASVKVSCKASGYSFTGSHLHWVRQAPGQGLEWMGWINPDSGVINYAQKFQGRVTLTRDTSISTAYMELSGLRSDDTAVYYCARDKAIGYVWALDYWGQGTLVTVSS
VL: QSALTQPPSVSGSPGQSVTISCTGTSSDVGTYNRVSWYQQPPGKAPKLMIYEVSNRPSGVSNRFSGSKSGNTASLTISGLQAEDEADYYCSSYTRTFTYVFGTGTKVTVL
B8: Ab 15 (Fc fusion)
VH: QVQLVQSGGGLVKPGRSLRLSCTASGFTFGDYAMSWFRQAPGKGLEWVGFIRSKAYGGTTGYAASVKGRFTISRDDSKSIAYLQMNSLKTEDTAVYYCTTADDDMDVWGKGTTVTVSS
VL: NFMLTQPHSVSESPGKTVTISCTRSSGTIASNYVQWYQQRPGSAPTTVIYEDNQRPSGVPDRFSGSIDRSSNSASLTISGLTPDDEADYYCQSYDTSNHYVFGTGTKVTVL

Legend:
Assay in all cases: BLI
S1 [1] = target: S1
S1-biotin(ACRO) = target: S1-biotin(ACRO)
S1 [2] = target: S1; remark: listed apart in the source
S1 [3] = target: S1; remark: listed apart in the source
S1 [4] = target: S1; remark: listed apart in the source

Binder	Kd (S1 [1]) [nM]	Kd (S1-biotin(ACRO)) [nM]	Kd (S1 [2]) [nM]	Kd (S1 [3]) [nM]	Kd (S1 [4]) [nM]
B1	10.1	10.1	–	–	–
B2	< 0.001	–	< 0.001	–	–
B3	–	–	–	< 0.001	< 0.001
B4	< 0.001	–	–	–	–
B5	0.314	–	–	–	–
B6	0.338	0.338	–	–	–
B7	< 0.001	< 0.001	–	–	–
B8	0.033	0.033	–	–	–
